Reference: patent US20120172293A1 (Takeda / Millennium, published 2012)
Non-standard residues stand in square brackets, D forms with d. No end group written: not given here. *: point of attachment. X11 = ((1S)-1-carboxy-3-methylbutyl)carbamoyl, CC(C)C[C@H](NC(=O)*)C(=O)O; Phe(3-F) = N[C@@H](Cc1cccc(F)c1)C(=O)O; Phe(3-Me) = Cc1cccc(C[C@H](N)C(=O)O)c1; Phe(2-F) = N[C@@H](Cc1ccccc1F)C(=O)O; Phe(2-Me) = Cc1ccccc1C[C@H](N)C(=O)O; Tic = O=C(O)[C@@H]1Cc2ccccc2CN1; Cha = N[C@@H](CC1CCCCC1)C(=O)O; dIva = CC[C@@](C)(N)C(=O)O; 4Amb = NCc1ccc(C(=O)O)cc1; Aib = CC(C)(N)C(=O)O

Assays:
human Y2 receptor [1] = biological target: T1, human Y2 receptor (human, UniProt P49146 1-381); assay: RBA: [125I]-PYY displacement, hY2R/CHO membranes
T1 construct: whole, on cells; used as membrane fraction of hY2R/CHO cells; also called human NPY2R; hY2R
T1 sequence (looked up): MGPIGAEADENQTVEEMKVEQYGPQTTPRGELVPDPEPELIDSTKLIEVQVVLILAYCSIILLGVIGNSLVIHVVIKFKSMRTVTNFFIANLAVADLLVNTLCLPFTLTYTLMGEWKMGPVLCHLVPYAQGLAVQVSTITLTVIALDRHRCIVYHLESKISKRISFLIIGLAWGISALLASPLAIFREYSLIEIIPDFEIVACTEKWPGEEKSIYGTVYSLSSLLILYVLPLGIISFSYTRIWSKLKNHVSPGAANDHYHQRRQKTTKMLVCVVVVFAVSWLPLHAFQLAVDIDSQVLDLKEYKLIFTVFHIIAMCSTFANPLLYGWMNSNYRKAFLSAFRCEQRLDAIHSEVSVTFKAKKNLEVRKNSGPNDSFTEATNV
How it was run: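 Bound radioligand was collected by filtration on PEI-treated GF/C filters, washed with Tris/MgCl₂/NaCl/CHAPS buffer pH 7.4, and counted by scintillation; IC₅₀ values were calculated.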

human Y2 receptor [2] = biological target: T1, human Y2 receptor; assay: cell-based or functional assay

B1: 4-Aminomethylbenzoyl-[Ala26, Ile28,31, Tic36]-PYY(25-36) (peptide)
peptide: [4Amb]RAYINLITRQR[Tic]-NH2
modifications: N-terminus assumed
SMILES: CC[C@H](C)[C@H](NC(=O)[C@H](Cc1ccc(O)cc1)NC(=O)[C@H](C)NC(=O)[C@H](CCCNC(=N)N)NC(=O)c1ccc(CN)cc1)C(=O)N[C@@H](CC(N)=O)C(=O)N[C@@H](CC(C)C)C(=O)N[C@H](C(=O)N[C@H](C(=O)N[C@@H](CCCNC(=N)N)C(=O)N[C@@H](CCC(N)=O)C(=O)N[C@@H](CCCNC(=N)N)C(=O)N1Cc2ccccc2C[C@H]1C(N)=O)[C@@H](C)O)[C@@H](C)CC
notes: also called compound No. 17
In the case of B1, the “IC50 Ratio (vs PYY(3-36))” value (human Y2 receptor [1]) is reported as 180 ratio and the “GBA EC50 Ratio (vs PYY(3-36)), [35S]GTPγS” value (shortened to “GBA EC50 Ratio”) (human Y2 receptor [2]) is reported as 66 ratio.

B2: [(1S)-1-carboxy-3-methylbutyl]carbamoyl-[D-Pro24, Cha27,28,36, Aib31]-PYY(23-36) (peptide)
peptide: X11-S[dP]RH[Cha][Cha]NL[Aib]TRQR[Cha]-NH2
SMILES: CC(C)C[C@H](NC(=O)N[C@@H](CO)C(=O)N1CCC[C@@H]1C(=O)N[C@@H](CCCNC(=N)N)C(=O)N[C@@H](Cc1c[nH]cn1)C(=O)N[C@@H](CC1CCCCC1)C(=O)N[C@@H](CC1CCCCC1)C(=O)N[C@@H](CC(N)=O)C(=O)N[C@@H](CC(C)C)C(=O)NC(C)(C)C(=O)N[C@H](C(=O)N[C@@H](CCCNC(=N)N)C(=O)N[C@@H](CCC(N)=O)C(=O)N[C@@H](CCCNC(=N)N)C(=O)N[C@@H](CC1CCCCC1)C(N)=O)[C@@H](C)O)C(=O)O
notes: also called compound No. 184
B2 was tested, and the “IC50 Ratio (vs PYY(3-36))” value (human Y2 receptor [1]) was 1.5 ratio and the “GBA EC50 Ratio” value (human Y2 receptor [2]) was 2.9 ratio.

B3: Ac-[D-Pro24, D-Iva27, Cha28,36, Aib31]-PYY(23-36) (peptide)
peptide: Ac-S[dP]RH[dIva][Cha]NL[Aib]TRQR[Cha]-NH2
SMILES: CC[C@@](C)(NC(=O)[C@H](Cc1c[nH]cn1)NC(=O)[C@H](CCCNC(=N)N)NC(=O)[C@H]1CCCN1C(=O)[C@H](CO)NC(C)=O)C(=O)N[C@@H](CC1CCCCC1)C(=O)N[C@@H](CC(N)=O)C(=O)N[C@@H](CC(C)C)C(=O)NC(C)(C)C(=O)N[C@H](C(=O)N[C@@H](CCCNC(=N)N)C(=O)N[C@@H](CCC(N)=O)C(=O)N[C@@H](CCCNC(=N)N)C(=O)N[C@@H](CC1CCCCC1)C(N)=O)[C@@H](C)O
notes: also called compound No. 180
B3 was tested, and the “IC50 Ratio (vs PYY(3-36))” value (human Y2 receptor [1]) was 8.1 ratio and the “GBA EC50 Ratio” value (human Y2 receptor [2]) was 6 ratio.

B4: Ac-[D-Pro24, Cha27,28, Aib31, Phe(2F)36]-PYY(23-36) (peptide)
peptide: Ac-S[dP]RH[Cha][Cha]NL[Aib]TRQR[Phe(2-F)]-NH2
SMILES: CC(=O)N[C@@H](CO)C(=O)N1CCC[C@@H]1C(=O)N[C@@H](CCCNC(=N)N)C(=O)N[C@@H](Cc1c[nH]cn1)C(=O)N[C@@H](CC1CCCCC1)C(=O)N[C@@H](CC1CCCCC1)C(=O)N[C@@H](CC(N)=O)C(=O)N[C@@H](CC(C)C)C(=O)NC(C)(C)C(=O)N[C@H](C(=O)N[C@@H](CCCNC(=N)N)C(=O)N[C@@H](CCC(N)=O)C(=O)N[C@@H](CCCNC(=N)N)C(=O)N[C@@H](Cc1ccccc1F)C(N)=O)[C@@H](C)O
notes: also called compound No. 194
In the case of B4, the “IC50 Ratio (vs PYY(3-36))” value (human Y2 receptor [1]) is reported as 1.4 ratio and the “GBA EC50 Ratio” value (human Y2 receptor [2]) is reported as 1.3 ratio.

B5: Ac-[D-Pro24, Cha27,28, Aib31, Phe(2Me)36]-PYY(23-36) (peptide)
peptide: Ac-S[dP]RH[Cha][Cha]NL[Aib]TRQR[Phe(2-Me)]-NH2
SMILES: CC(=O)N[C@@H](CO)C(=O)N1CCC[C@@H]1C(=O)N[C@@H](CCCNC(=N)N)C(=O)N[C@@H](Cc1c[nH]cn1)C(=O)N[C@@H](CC1CCCCC1)C(=O)N[C@@H](CC1CCCCC1)C(=O)N[C@@H](CC(N)=O)C(=O)N[C@@H](CC(C)C)C(=O)NC(C)(C)C(=O)N[C@H](C(=O)N[C@@H](CCCNC(=N)N)C(=O)N[C@@H](CCC(N)=O)C(=O)N[C@@H](CCCNC(=N)N)C(=O)N[C@@H](Cc1ccccc1C)C(N)=O)[C@@H](C)O
notes: also called compound No. 196
With B5 the “IC50 Ratio (vs PYY(3-36))” value (human Y2 receptor [1]) was 1.6 ratio and the “GBA EC50 Ratio” value (human Y2 receptor [2]) was 1.6 ratio.

B6: Ac-[D-Pro24, Cha27,28, Aib31, Phe(3Me)36]-PYY(23-36) (peptide)
peptide: Ac-S[dP]RH[Cha][Cha]NL[Aib]TRQR[Phe(3-Me)]-NH2
SMILES: CC(=O)N[C@@H](CO)C(=O)N1CCC[C@@H]1C(=O)N[C@@H](CCCNC(=N)N)C(=O)N[C@@H](Cc1c[nH]cn1)C(=O)N[C@@H](CC1CCCCC1)C(=O)N[C@@H](CC1CCCCC1)C(=O)N[C@@H](CC(N)=O)C(=O)N[C@@H](CC(C)C)C(=O)NC(C)(C)C(=O)N[C@H](C(=O)N[C@@H](CCCNC(=N)N)C(=O)N[C@@H](CCC(N)=O)C(=O)N[C@@H](CCCNC(=N)N)C(=O)N[C@@H](Cc1cccc(C)c1)C(N)=O)[C@@H](C)O
notes: also called compound No. 197
With B6 the “IC50 Ratio (vs PYY(3-36))” value (human Y2 receptor [1]) was 1.3 ratio and the “GBA EC50 Ratio” value (human Y2 receptor [2]) was 1.9 ratio.

B7: Ac-[D-Pro24, Cha27,28, Aib31, Phe(3F)36]-PYY(23-36) (peptide)
peptide: Ac-S[dP]RH[Cha][Cha]NL[Aib]TRQR[Phe(3-F)]-NH2
SMILES: CC(=O)N[C@@H](CO)C(=O)N1CCC[C@@H]1C(=O)N[C@@H](CCCNC(=N)N)C(=O)N[C@@H](Cc1c[nH]cn1)C(=O)N[C@@H](CC1CCCCC1)C(=O)N[C@@H](CC1CCCCC1)C(=O)N[C@@H](CC(N)=O)C(=O)N[C@@H](CC(C)C)C(=O)NC(C)(C)C(=O)N[C@H](C(=O)N[C@@H](CCCNC(=N)N)C(=O)N[C@@H](CCC(N)=O)C(=O)N[C@@H](CCCNC(=N)N)C(=O)N[C@@H](Cc1cccc(F)c1)C(N)=O)[C@@H](C)O
notes: also called compound No. 195
For B7, the “IC50 Ratio (vs PYY(3-36))” value (human Y2 receptor [1]) was 2.1 ratio and the “GBA EC50 Ratio” value (human Y2 receptor [2]) was 1.5 ratio.
